Experimental data from patent US20020058619A1.

Key:
[1] = molecular target: Recombinant human Flt-1/Fc chimera (R&D Systems) (human) (UniProt P17948); assay: fluorescence plate assay; control peptide at 1 µM on immobilized Flt-1/Fc
[2] = molecular target: Recombinant human Flt-1/Fc chimera (R&D Systems) (human) (UniProt P17948); assay: fluorescence plate assay; control peptide at 100 µM on immobilized Flt-1/Fc
[3] = molecular target: Recombinant human Flt-1/Fc chimera (R&D Systems) (human) (UniProt P17948); assay: fluorescence plate assay; control peptide at 0 µM on immobilized Flt-1/Fc
[4] = molecular target: Recombinant human Flt-1/Fc chimera (R&D Systems) (human) (UniProt P17948); assay: fluorescence plate assay; control peptide at 10 µM on immobilized Flt-1/Fc
[5] = molecular target: Recombinant human Flt-1/Fc chimera (R&D Systems) (human) (UniProt P17948); assay: fluorescence plate assay; control peptide at 0.1 µM on immobilized Flt-1/Fc

Chain of Recombinant human Flt-1/Fc chimera (R&D Systems) (human) (P17948 other isoform, or with tags, fused parts or gaps mutant limits assumed): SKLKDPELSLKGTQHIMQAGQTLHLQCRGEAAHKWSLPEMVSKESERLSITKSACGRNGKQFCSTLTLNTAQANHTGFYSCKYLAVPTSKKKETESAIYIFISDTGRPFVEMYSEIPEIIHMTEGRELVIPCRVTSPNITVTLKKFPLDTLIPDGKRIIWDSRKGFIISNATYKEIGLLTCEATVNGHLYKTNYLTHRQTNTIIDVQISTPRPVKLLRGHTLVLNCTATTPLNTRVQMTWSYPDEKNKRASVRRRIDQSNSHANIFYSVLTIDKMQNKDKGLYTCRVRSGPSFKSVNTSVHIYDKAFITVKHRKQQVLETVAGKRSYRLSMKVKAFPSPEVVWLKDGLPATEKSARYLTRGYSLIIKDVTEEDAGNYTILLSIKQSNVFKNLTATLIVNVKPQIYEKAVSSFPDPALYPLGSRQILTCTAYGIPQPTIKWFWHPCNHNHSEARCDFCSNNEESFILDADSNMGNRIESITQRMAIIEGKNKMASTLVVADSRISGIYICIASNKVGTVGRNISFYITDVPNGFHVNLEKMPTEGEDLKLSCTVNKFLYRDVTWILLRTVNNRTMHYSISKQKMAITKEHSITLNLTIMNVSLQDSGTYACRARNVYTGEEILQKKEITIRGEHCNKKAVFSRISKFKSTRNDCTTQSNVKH

Control peptide (Table 5) gave a Fluorescence [1] of 20, a Fluorescence [2] of 1100 and a Fluorescence [3] of 0. It also gave a Fluorescence [4] of 493 and a Fluorescence [5] of 7.
